# Assay results: US6132731, “Murine leukemia virus vectors” (Oxford Biomedica (UK) Limited, dated 2000)
# B1: hybrid ecotropic MLV envelope with FLA16 at site II (plasmid pHIT508) (other)
# chain: ASPGSSPHQVYNITWEVTNGDRETVWATSGNHPLWTWWPDLTPDLCMLAHHGPSYWGLEYQSPFSSPPGPPCCSGGSSPGCSRDCEEPLTSLTPRCNTAWNRLKLDQTTHKSNEGFYVCQGATFALRGDNPQGCGGPDSFYCAYWGCETTGRAYWKPSSSWDFITVNNNLTSDQAVQVCKDNKWCNPLVIRFTDAGRRVTSWTTGHYWGLRLYVSGQDPGLTFGIRLRYQNLGPRVPIGPNPVLADQQPLSKPKPVKSPSVTKPPSGTPLSPTQLPPAGTENRLLNLVDGAYQALNLTSPDKTQECWLCLVAGPPYYEGVAVLGTYSNHTSAPANCSVASQHKLTLSEVTGQGLCIGAVPKTHQALCNTTQTSSRGSYYLVAPTGTMWACSTGLTPCISTTILNLTTDYCVLVELWPRVTYHSPSYVYGLFERSNRHKREPVSLTLALLLGGLTMGGIAAGIGTGTTALMATQQFQQLQAAVQDDLREVEKSISNLEKSLTSLSEVVLQNRRGLDLLFLKEGGLCAALKEECCFYADHTGLVRDSMAKLRERLNQRQKLFESTQGWFEGLFNRSPWFTTLISTIMGPLIVLLMILLFGPCILNRLVQFVKDRISVVQALVLTQQYHQLKPIEYEP
# B2: hybrid ecotropic MLV envelope with the VCAM-1 sequence at site II (plasmid pHIT510) (other)
# chain: ASPGSSPHQVYNITWEVTNGDRETVWATSGNHPLWTWWPDLTPDLCMLAHHGPSYWGLEYQSPFSSPPGPPCCSGGSSPGCSRDCEEPLTSLTPRCNTAWNRLKLDQTTHKSNEGFYVCTIDSPLNCGGPDSFYCAYWGCETTGRAYWKPSSSWDFITVNNNLTSDQAVQVCKDNKWCNPLVIRFTDAGRRVTSWTTGHYWGLRLYVSGQDPGLTFGIRLRYQNLGPRVPIGPNPVLADQQPLSKPKPVKSPSVTKPPSGTPLSPTQLPPAGTENRLLNLVDGAYQALNLTSPDKTQECWLCLVAGPPYYEGVAVLGTYSNHTSAPANCSVASQHKLTLSEVTGQGLCIGAVPKTHQALCNTTQTSSRGSYYLVAPTGTMWACSTGLTPCISTTILNLTTDYCVLVELWPRVTYHSPSYVYGLFERSNRHKREPVSLTLALLLGGLTMGGIAAGIGTGTTALMATQQFQQLQAAVQDDLREVEKSISNLEKSLTSLSEVVLQNRRGLDLLFLKEGGLCAALKEECCFYADHTGLVRDSMAKLRERLNQRQKLFESTQGWFEGLFNRSPWFTTLISTIMGPLIVLLMILLFGPCILNRLVQFVKDRISVVQALVLTQQYHQLKPIEYEP
# Key:
# VLA4 receptor (human) = VLA4 receptor (human) (UniProt P13612)
# VLA5 receptor = VLA5 receptor (human, UniProt P08648); assay: cell-based or functional assay
# VLA3 receptor = VLA3 receptor (human, UniProt P26006); assay: cell-based or functional assay
# VLA4 receptor = VLA4 receptor (human, UniProt P13612); assay: cell-based or functional assay
molecule,measurement,setting,value
amphotropic MLV envelope (isolate 4070a) (plasmid pHIT456),viral titer of pHIT456 (amphotropic) virus on U937 cells in the presence of anti-VLA4 antibody,VLA4 receptor (human),40000 viral titer
B1,"viral titer on U937 cells (lacZ delivery, X-gal staining)",VLA5 receptor,150 viral titer
same,"viral titer on U937 cells (lacZ delivery, X-gal staining)",VLA3 receptor,150 viral titer
B2,"viral titer on U937 cells (lacZ delivery, X-gal staining)",VLA4 receptor,150 viral titer
